Data reported in patent US20080020978A1 (Amgen, published 2008).
Changes are numbered by the printed parent chain. Bridge positions count the residues as written; N and C are the ends. Square brackets hold non-standard residues; d marks the D form. Oic = O=C(O)[C@@H]1C[C@@H]2CCCC[C@@H]2N1; 1Nal = N[C@@H](Cc1cccc2ccccc12)C(=O)O; Igl = N[C@H](C(=O)O)C1Cc2ccccc2C1; hArg = N=C(N)NCCCC[C@H](N)C(=O)O; Cit = NC(=O)NCCC[C@H](N)C(=O)O; Phg = N[C@H](C(=O)O)c1ccccc1; Nle = CCCC[C@H](N)C(=O)O

B1: SEQ ID NO 942 (peptide)
peptide: Ac-WVTH[hArg]LEGLLK[Cit]SGGVV[hArg]KNFVPTDVG[Oic]FAF-NH2
modifications: lactam (positions not given here); not fully specified; printed as Ac-WVTH[hArg]LEGLLK[Cit]SGGVV[hArg]KNFVPTDVG[Oic]FAF-NH2
B2: PEG-peptide of SEQ ID NO 927 (peptide)
peptide: WVTHXLAGLLSXSGGVVXKNFVPTDVGPXAF
modifications: Ac-WVTH[Cit]LAGLLS[Cit]SGGVV[hArg]KNFVPTDVGP[1-Nal]AF-NH2; PEG-conjugated (Table 2C: in most cases at Lys^25)
B3: PEG-peptide of SEQ ID NO 929 (peptide)
peptide: B2 peptide
modifications: Ac-WVTH[Cit]LAGLLS[Cit]SGGVV[hArg]KNFVPTDVGP[Bip]AF-NH2; PEG-conjugated (Table 2C: in most cases at Lys^25)
B4: PEG-peptide of SEQ ID NO 926 (peptide)
peptide: B2 peptide
modifications: Ac-WVTH[hArg]LAGLLS[Cit]SGGVV[hArg]KNFVPTDVGP[2-Nal]AF-NH2; PEG-conjugated (Table 2C: in most cases at Lys^25)
B5: SEQ ID NO 918 (peptide)
peptide: Ac-WVTH[Cit]LAGLLS[Cit]SGGVVRKNFVPTDVGPKAF-NH2
SMILES: CC(=O)N[C@@H](Cc1c[nH]c2ccccc12)C(=O)N[C@H](C(=O)N[C@H](C(=O)N[C@@H](Cc1c[nH]cn1)C(=O)N[C@@H](CCCNC(N)=O)C(=O)N[C@@H](CC(C)C)C(=O)N[C@@H](C)C(=O)NCC(=O)N[C@@H](CC(C)C)C(=O)N[C@@H](CC(C)C)C(=O)N[C@@H](CO)C(=O)N[C@@H](CCCNC(N)=O)C(=O)N[C@@H](CO)C(=O)NCC(=O)NCC(=O)N[C@H](C(=O)N[C@H](C(=O)N[C@@H](CCCNC(=N)N)C(=O)N[C@@H](CCCCN)C(=O)N[C@@H](CC(N)=O)C(=O)N[C@@H](Cc1ccccc1)C(=O)N[C@H](C(=O)N1CCC[C@H]1C(=O)N[C@H](C(=O)N[C@@H](CC(=O)O)C(=O)N[C@H](C(=O)NCC(=O)N1CCC[C@H]1C(=O)N[C@@H](CCCCN)C(=O)N[C@@H](C)C(=O)N[C@@H](Cc1ccccc1)C(N)=O)C(C)C)[C@@H](C)O)C(C)C)C(C)C)C(C)C)[C@@H](C)O)C(C)C
B6: SEQ ID NO 925 (peptide)
peptide: Ac-WVTH[hArg]LAGLLS[Cit]SGGVV[hArg]KNFVPTDVGPFA[Phg]-NH2
SMILES: CC(=O)N[C@@H](Cc1c[nH]c2ccccc12)C(=O)N[C@H](C(=O)N[C@H](C(=O)N[C@@H](Cc1c[nH]cn1)C(=O)N[C@@H](CCCCNC(=N)N)C(=O)N[C@@H](CC(C)C)C(=O)N[C@@H](C)C(=O)NCC(=O)N[C@@H](CC(C)C)C(=O)N[C@@H](CC(C)C)C(=O)N[C@@H](CO)C(=O)N[C@@H](CCCNC(N)=O)C(=O)N[C@@H](CO)C(=O)NCC(=O)NCC(=O)N[C@H](C(=O)N[C@H](C(=O)N[C@@H](CCCCNC(=N)N)C(=O)N[C@@H](CCCCN)C(=O)N[C@@H](CC(N)=O)C(=O)N[C@@H](Cc1ccccc1)C(=O)N[C@H](C(=O)N1CCC[C@H]1C(=O)N[C@H](C(=O)N[C@@H](CC(=O)O)C(=O)N[C@H](C(=O)NCC(=O)N1CCC[C@H]1C(=O)N[C@@H](Cc1ccccc1)C(=O)N[C@@H](C)C(=O)N[C@H](C(N)=O)c1ccccc1)C(C)C)[C@@H](C)O)C(C)C)C(C)C)C(C)C)[C@@H](C)O)C(C)C
B7: PEG-peptide of SEQ ID NO 928 (peptide)
peptide: B2 peptide with F21X
modifications: Ac-WVTH[Cit]LAGLLS[Cit]SGGVV[hArg]KN[pI-Phe]VPTDVGP[pI-Phe]AF-NH2; PEG-conjugated (Table 2C: in most cases at Lys^25)
B8: SEQ ID NO 945 (peptide)
peptide: Ac-KWVTH[Cit]LAGLLS[Cit]SGGVVRKNFVPTDVGPKAF-NH2
SMILES: CC(=O)N[C@@H](CCCCN)C(=O)N[C@@H](Cc1c[nH]c2ccccc12)C(=O)N[C@H](C(=O)N[C@H](C(=O)N[C@@H](Cc1c[nH]cn1)C(=O)N[C@@H](CCCNC(N)=O)C(=O)N[C@@H](CC(C)C)C(=O)N[C@@H](C)C(=O)NCC(=O)N[C@@H](CC(C)C)C(=O)N[C@@H](CC(C)C)C(=O)N[C@@H](CO)C(=O)N[C@@H](CCCNC(N)=O)C(=O)N[C@@H](CO)C(=O)NCC(=O)NCC(=O)N[C@H](C(=O)N[C@H](C(=O)N[C@@H](CCCNC(=N)N)C(=O)N[C@@H](CCCCN)C(=O)N[C@@H](CC(N)=O)C(=O)N[C@@H](Cc1ccccc1)C(=O)N[C@H](C(=O)N1CCC[C@H]1C(=O)N[C@H](C(=O)N[C@@H](CC(=O)O)C(=O)N[C@H](C(=O)NCC(=O)N1CCC[C@H]1C(=O)N[C@@H](CCCCN)C(=O)N[C@@H](C)C(=O)N[C@@H](Cc1ccccc1)C(N)=O)C(C)C)[C@@H](C)O)C(C)C)C(C)C)C(C)C)[C@@H](C)O)C(C)C
B9: SEQ ID NO 940 (peptide)
peptide: Ac-WVTH[Cit]LAGLLS[Cit]SGGV[Nle]RKNFVPTDVGPFAF-NH2
SMILES: CCCC[C@H](NC(=O)[C@@H](NC(=O)CNC(=O)CNC(=O)[C@H](CO)NC(=O)[C@H](CCCNC(N)=O)NC(=O)[C@H](CO)NC(=O)[C@H](CC(C)C)NC(=O)[C@H](CC(C)C)NC(=O)CNC(=O)[C@H](C)NC(=O)[C@H](CC(C)C)NC(=O)[C@H](CCCNC(N)=O)NC(=O)[C@H](Cc1c[nH]cn1)NC(=O)[C@@H](NC(=O)[C@@H](NC(=O)[C@H](Cc1c[nH]c2ccccc12)NC(C)=O)C(C)C)[C@@H](C)O)C(C)C)C(=O)N[C@@H](CCCNC(=N)N)C(=O)N[C@@H](CCCCN)C(=O)N[C@@H](CC(N)=O)C(=O)N[C@@H](Cc1ccccc1)C(=O)N[C@H](C(=O)N1CCC[C@H]1C(=O)N[C@H](C(=O)N[C@@H](CC(=O)O)C(=O)N[C@H](C(=O)NCC(=O)N1CCC[C@H]1C(=O)N[C@@H](Cc1ccccc1)C(=O)N[C@@H](C)C(=O)N[C@@H](Cc1ccccc1)C(N)=O)C(C)C)[C@@H](C)O)C(C)C
B10: SEQ ID NO 944 (peptide)
peptide: Ac-WVTH[Cit]LAGELS[hArg]KGGVV[hArg]KNFVPTDVG[Oic][1Nal]AF-NH2
modifications: lactam 9-13
SMILES: CC(=O)N[C@@H](Cc1c[nH]c2ccccc12)C(=O)N[C@H](C(=O)N[C@H](C(=O)N[C@@H](Cc1c[nH]cn1)C(=O)N[C@@H](CCCNC(N)=O)C(=O)N[C@@H](CC(C)C)C(=O)N[C@@H](C)C(=O)NCC(=O)N[C@H]1CCC(=O)NCCCC[C@@H](C(=O)NCC(=O)NCC(=O)N[C@H](C(=O)N[C@H](C(=O)N[C@@H](CCCCNC(=N)N)C(=O)N[C@@H](CCCCN)C(=O)N[C@@H](CC(N)=O)C(=O)N[C@@H](Cc2ccccc2)C(=O)N[C@H](C(=O)N2CCC[C@H]2C(=O)N[C@H](C(=O)N[C@@H](CC(=O)O)C(=O)N[C@H](C(=O)NCC(=O)N2[C@H](C(=O)N[C@@H](Cc3cccc4ccccc34)C(=O)N[C@@H](C)C(=O)N[C@@H](Cc3ccccc3)C(N)=O)C[C@@H]3CCCC[C@@H]32)C(C)C)[C@@H](C)O)C(C)C)C(C)C)C(C)C)NC(=O)[C@H](CCCCNC(=N)N)NC(=O)[C@H](CO)NC(=O)[C@H](CC(C)C)NC1=O)[C@@H](C)O)C(C)C

biological target: CGRP1 receptor (CRLR/RAMP1 complex) of human neuroblastoma SK-N-MC cells (human, UniProt Q16602 23-461; O60894 27-148); experiment: cell-based or functional assay
Sequence (Q16602 23-461, chain 1 of 2): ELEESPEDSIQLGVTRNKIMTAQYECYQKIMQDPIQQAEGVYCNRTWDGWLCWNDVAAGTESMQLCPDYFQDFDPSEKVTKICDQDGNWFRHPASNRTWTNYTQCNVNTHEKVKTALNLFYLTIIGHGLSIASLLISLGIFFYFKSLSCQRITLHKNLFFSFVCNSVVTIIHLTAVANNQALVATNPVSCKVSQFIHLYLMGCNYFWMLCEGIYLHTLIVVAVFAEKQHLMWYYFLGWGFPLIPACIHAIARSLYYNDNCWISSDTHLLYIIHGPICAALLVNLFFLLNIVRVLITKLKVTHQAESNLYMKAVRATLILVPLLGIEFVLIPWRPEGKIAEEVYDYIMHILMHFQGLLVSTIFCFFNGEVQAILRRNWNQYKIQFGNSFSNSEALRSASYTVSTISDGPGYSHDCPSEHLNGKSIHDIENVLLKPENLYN
Sequence (O60894 27-148, chain 2 of 2): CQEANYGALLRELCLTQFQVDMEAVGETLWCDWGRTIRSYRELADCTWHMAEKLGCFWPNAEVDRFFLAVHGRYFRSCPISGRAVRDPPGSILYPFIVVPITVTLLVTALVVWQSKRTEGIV

Row | PEG-peptide IC50 [nM] | Peptide IC50 [nM] | Binder
1 | 126 | – | Ac-WVTH[Cit]LAGLLS[Cit]SGGVV[hArg]KNFVPTDVGP[Igl]AF-NH2 (also: PEG-conjugated, in most cases at Lys25) [PEG-peptide of SEQ ID NO 930]
2 | – | 0.83 | B1
3 | – | 0.85 | WVTHXLAGLLSXSGGVVRKNFVPTDVGXFAF (Ac-WVTH[Cit]LAGLLS[Cit]SGGVVRKNFVPTDVG[Oic]FAF-NH2) [SEQ ID NO 920]
4 | – | 1.65 | WVTHXLAGLLSXSGGVVXKNFVPTDVGXXAF (Ac-WVTH[Cit]LAGLLS[Cit]SGGVV[hArg]KNFVPTDVG[Oic][2-Nal]AF-NH2) [SEQ ID NO 934]
5 | – | 1.39 | WVTHXLAGLLSXSGGVVXKNFVPTDVGPFAF (Ac-WVTH[Cit]LAGLLS[Cit]SGGVV[3G-Dpr]KNFVPTDVGPFAF-NH2) [SEQ ID NO 938]
6 | – | 2.18 | WVTHXLAGLLSXSGGVVXKNFVPTDVGPXAF (Ac-WVTH[hArg]LAGLLS[Cit]SGGVV[hArg]KNFVPTDVGP[1-Nal]AF-NH2) [SEQ ID NO 924]
7 | – | 0.93 | WVTHXLAGLLSXSGGVVRKNFVXTDVGXFAF (Ac-WVTH[Cit]LAGLLS[Cit]SGGVVRKNFV[Oic]TDVG[Oic]FAF-NH2) [SEQ ID NO 921]
8 | – | 2.24 | WVTHXLAGLLSXSGGVVRKNFVPTDVGPFAX (Ac-WVTH[Cit]LAGLLS[Cit]SGGVVRKNFVPTDVGPFA[pI-Phe]-NH2) [SEQ ID NO 923]
9 | – | 1.76 | WVTHXLAGLLSXSGGVVXKNFVPTDVGPXAF (Ac-WVTH[Cit]LAGLLS[Cit]SGGVV[hArg]KNFVPTDVGP[Bip]AF-NH2) [SEQ ID NO 929]
10 | – | 89.9 | WVTHXLAGLLSXSGGVVXKNFVPTDVGPXAF (Ac-WVTH[Cit]LAGLLS[Cit]SGGVV[hArg]KNFVPTDVGP[Tic]AF-NH2) [SEQ ID NO 947]
11 | – | 2.41 | WVTHXLAGLLSXSGGVVXKNFVPTDVGPFAF (Ac-WVTH[Cit]LAGLLS[hArg]SGGVV[BhArg]KNFVPTDVGPFAF-NH2) [SEQ ID NO 936]
12 | 7.76 | – | WVTHXLAGLLSXSGGVVXKNFVPTDVGPFAF (Ac-WVTH[Cit]LAGLLS[Cit]SGGVV[hArg](30 KPEGald)NFVPTDVGPFAF-NH2) [PEG-peptide of SEQ ID NO 941]
13 | – | 2.37 | WVTHXLAGLLSXSGGVVXKNFVPTDVGPFAF (Ac-WVTH[Cit]LAGLLS[hArg]SGGVV[Guf]KNFVPTDVGPFAF-NH2) [SEQ ID NO 935]
14 | – | 1.31 | WVTHXLAGLLSXSGGVVXKNFVXTDVGXFAF (Ac-WVTH[Cit]LAGLLS[Cit]SGGVV[hArg]KNFV[Oic]TDVG[Oic]FAF-NH2) [SEQ ID NO 932]
15 | – | 0.88 | WVTHXLAGLLSXSGGVVXKNFVPTDVGXXAF (Ac-WVTH[Cit]LAGLLS[Cit]SGGVV[hArg]KNFVPTDVG[Oic][1-Nal]AF-NH2) [SEQ ID NO 933]
16 | – | 2.21 | WVTHXLAGLLSXSGGVVRKNXVPTDVGPFAX (Ac-WVTH[Cit]LAGLLS[Cit]SGGVVRKN[pI-Phe]VPTDVGPFA[pI-Phe]-NH2) [SEQ ID NO 922]

Row | PEG-peptide IC50 [nM] | Peptide IC50 [nM] | Binder
17 | 2.54 | – | B2
18 | – | 0.88 | WVTHXLAGLLSXSGGVVXKNFVPTDVGPXAF (Ac-WVTH[hArg]LAGLLS[Cit]SGGVV[hArg]KNFVPTDVGP[2-Nal]AF-NH2) [SEQ ID NO 926]
19 | 5.58 | – | B3
20 | 2.39 | – | B4
21 | – | 2.87 | WVTHXLAGLLSXSGGVVXKNFVPTDVGPFAF (Ac-WVTH[Cit]LAGLLS[Cit]SGGVV[Cit]KNFVPTDVGPFAF-NH2) [SEQ ID NO 937]
22 | – | 1.28 | WVTHXLAGLLSXSGGVVXKNFVPTDVGPXAF (Ac-WVTH[Cit]LAGLLS[Cit]SGGVV[hArg]KNFVPTDVGP[1-Nal]AF-NH2) [SEQ ID NO 927]
23 | – | 1.48 | B5
24 | – | 6.78 | B6
25 | – | 1.16 | WVTHXLAGLLSXSGGVVXKNXVPTDVGPXAF (Ac-WVTH[Cit]LAGLLS[Cit]SGGVV[hArg]KN[pI-Phe]VPTDVGP[pI-Phe]AF-NH2) [SEQ ID NO 928]
26 | 11.4 | – | B7
27 | – | 1.45 | Ac-WVTH[Cit]LAGELS[Cit]KGGVV[hArg]KNFVPTDVG[Oic]FAF-NH2 [SEQ ID NO 943]
28 | – | 13 | B8
29 | – | 1.85 | B9
30 | – | 0.85 | B10
31 | – | 4.58 | Ac-WVTH[Cit]LAGLLS[Cit]SGGVV[hArg]KNFVPTDVGP[Igl]AF-NH2 [SEQ ID NO 930]
